{
  "source": "patent US20060134122A1",
  "about": "“Peptides of syndecan-1 for inhibition of cancer” (priority 2004, published 2006)",
  "molecules": {"B1": {"name": "GST-hS1ED: recombinant GST fusion protein containing the ectodomain of human Sdc-1 (protein)", "chain": "QIVATNLPPEDQDGSGDDSDNFSGSGAGALQDITLSQQTPSTWKDTQLLTAIPTSPEPTGLEATAASTSTLPAGEGPKEGEAVVLPEVEPGLTAREQEATPRPRETTQLPTTHQASTTTATTAQEPATSHPHRDMQPGHHETSTPAGPSQADLHTPHTEDGGPSATERAAEDGASSQLPAAEGSGEQDFTFETSGENTAVVAVEPDRRNQSPVDQGATGASQGLLDRKEVLG", "modifications": "left off: a dimerising Fc or GST"}, "B2": {"name": "Sdc-1 ectodomain: recombinant Sdc-1 ectodomain competitor; species and fusion not stated at this place (protein)", "chain": "B1 chain"}, "B3": {"name": "hScd-1ED: soluble human Sdc-1 ectodomain used as competitor on HMEC cells (protein, UniProt P18827 23-254, looked up)", "extracellular domain": "B1 chain with Q114L", "modifications": "extracellular domain"}},
  "key": {"[1]": {"test_system": "human microvascular endothelial cells (HMECs)", "assay": "Apoptosis of serum-starved HMEC", "type": "cell-based", "conditions": "for cell death / protection from apoptosis, agent alone: VEGF 100 ng/ml, FGF 100 ng/ml, hScd-1ED 30 ug/ml", "procedure": "FIGS. 17A-B—Competition with soluble Sdc-1 ectodomain causes enhanced apoptosis of human microvascular endothelial cells (HMECs) in the presence of FGF. (FIG. 17A) HMEC-1 cells were plated overnight on gelatin, then starved for 24 hr to induce the intrinsic pathway of apoptosis. Apoptotic cells were easily observed by DIC microscopy. Examples of apoptotic cells are denoted by black arrows, living cells by red arrows. Cells were treated with 100 ng/ml VEGF, 100 ng/ml FGF, FGF+30 ug/ml hScd-1ED or hScd-1ED alone. […] (FIG. 17B) Quantification of % protection from apoptosis by each treatment. […] VEGF has no effect on this pathway, as it affects the extrinsic pathway of apoptosis which is not induced by serum starvation.\nFinally, the inventors performed used human microvascular endothelial cells (HMECs), which also express Sdc-1, as well as the αvβ3 and αvβ5 integrins, to test the theory that endothelial cells undergoing angiogenesis in response to fibroblast growth factor, a common angiogenic agent, will enter apoptosis and die unless the FGF signal is accompanied by a coordinate signal from the αvβ3 integrin. The inventors hypothesis was that recombinant ectodomain of Sdc-1 would block the signal from the αvβ3 integrin and induce apoptosis in the presence of FGF. HMEC cells grown in low serum conditions spontaneously enter apoptosis. […] In fact, treatment with FGF together with the soluble ectodomain protein induced apoptosis beyond that of the low serum condition alone (FIGS. 17A-B)."}, "[2]": {"test_system": "B82L fibroblasts", "assay": "B82L cell attachment and spreading", "type": "cell-based, mouse", "from_the_text": "FIGS. 11A-F—Downregulation of mouse Sdc-1 expression by siRNA blocks αvβ5-dependent cell attachment and spreading on VN. FACS analysis for (FIG. 11A) mouse syndecan-1 (mAb 281.2), (FIG. 11B) αv integrin subunit (mAb H9.2B8), (FIG. 11C) mouse Syndecan-4 (mAb KY8.2), (FIG. 11D) human syndecan-1 (mAb B-B4) and (FIG. 11E) FcR^ecto-hS1 chimera (FITC-conjugated hIgG) expression against isotype IgG controls (red-fill) in vector^NEO (FIGS. 11A-C), human syndecan-1 (FIG. 11D) and FcR^ecto-hS1 (FIG. 11E) expressing B82L cells 48 h after transfection with either 600 nM control (Control) or mouse syndecan-1-specific siRNA (siRNA). (FIG. 11F) B82L^NEO empty vector-transfected control cells and B82L cells expressing human syndecan-1 or the FcR^ecto-hS1 chimera were transfected with control or mouse syndecan-1-specific siRNA and seeded on wells coated with either 5 μg/mL VN alone or a mixed substratum of VN plus 60 μg/mL of antibody directed against mouse syndecan-1 (281.2), human syndecan-1 (B-B4) or the FcR^ecto-hS1 chimera (hIgG). Cells were incubated at 37° C. for 2 h, fixed, and stained with rhodamine-conjugated phalloidin.\nFIGS. 12A-B—B82L cell spreading on VN is blocked by recombinant Scd-1ED. (FIG. 12A) B82L fibroblasts were plated on 5 μg/mL VN in the absence of other treatment, or in the presence of 30 μM GST, 1-30 μM GST-mS1ED or 30 μM GST-mS4ED (inset), then fixed and stained with rhodamine-phalloidin for visualization. (FIG. 12B) Quantification of cell adhesion in triplicate samples (±S.E.) plated either with no additions, or concentrations of GST-mS1ED ranging from 0-30 μM. […]\nThe failure of NEO cells to engage the mixed substratum is indicative of the efficient blockade of mouse Sdc-1 expression by the siRNA. It is unlikely that the mouse Sdc-1-siRNA treatment has any non-specific cellular effects since spreading on VN is specifically rescued by the expression of full-length human Sdc-1 (hS1, FIG. 11F). Spreading of the B82L-hS1 cells is indistinguishable from parental cells. However, spreading on VN is not recovered in cells expressing the FcR^ecto-hS1 chimera—a construct in which the syndecan's ectodomain is replaced by the ectodomain of the human Fcγ receptor Ia (FcR^ecto-hS1)—regardless of whether the cells are plated on VN alone, or VN supplemented with 60 μg/mL of hIgG to engage the FcR^ecto-hS1 construct.\nRecombinant Sdc-1 ectodomain competitively blocks αvβ5 integin activity. To test whether soluble Sdc-1 ectodomain will compete with the syndecan activation of the αvβ5 integrin, B82L cells were plated on 5 μg/mL VN in the presence of a recombinant GST fusion protein containing either the ectodomain of mouse Sdc-1 (GST-mS1ED) or human Sdc-1 (GST-hS1ED; data not shown)."}, "[3]": {"test_system": "mouse aortic endothelial cells", "assay": "Mouse aortic endothelial cell spreading on VN", "type": "cell-based", "from_the_text": "Secondly, they targeted Sdc-1 expression cells using siRNA."}},
  "note": "Where a chain is given by its changes, count along the chain named.",
  "data": [
    {"molecule": "VEGF [reference compound]", "values": [
      {"measurement": "cell death / protection from apoptosis, agent alone", "setting": "[1]; starved 24 hr", "value": "no effect"}
    ]},
    {"molecule": "B1", "values": [
      {"measurement": "cell attachment and spreading on VN", "setting": "[2]; 5 μg/mL VN, S1ED 1-30 μM, GST and GST-mS4ED 30 μM", "value": "increasing blockade"},
      {"measurement": "lowest concentration tested at which competition occurs", "setting": "[2]; cells plated on 5 μg/mL VN", "value": 1, "unit": "µM"}
    ]},
    {"molecule": "B2", "values": [
      {"measurement": "competitor concentration at which spreading on VN is blocked", "setting": "[3]", "value": 1, "unit": "µM"}
    ]},
    {"molecule": "B3", "values": [
      {"measurement": "cell death in 15% serum", "setting": "[1]; control cells in 15% serum, not shown", "value": "no effect"},
      {"measurement": "apoptosis in the presence of FGF", "setting": "[1]; starved 24 hr, 100 ng/ml FGF + 30 ug/ml hScd-1ED", "value": "dramatically increases apoptosis"},
      {"measurement": "cell death / protection from apoptosis, agent alone", "setting": "[1]; starved 24 hr", "value": "protective effect"}
    ]}
  ]
}
